Positions count from the first letter of the chain named.
T1: cynomolgus β6 on transfected HEK-293 cells (cynomolgus)
T1 chain: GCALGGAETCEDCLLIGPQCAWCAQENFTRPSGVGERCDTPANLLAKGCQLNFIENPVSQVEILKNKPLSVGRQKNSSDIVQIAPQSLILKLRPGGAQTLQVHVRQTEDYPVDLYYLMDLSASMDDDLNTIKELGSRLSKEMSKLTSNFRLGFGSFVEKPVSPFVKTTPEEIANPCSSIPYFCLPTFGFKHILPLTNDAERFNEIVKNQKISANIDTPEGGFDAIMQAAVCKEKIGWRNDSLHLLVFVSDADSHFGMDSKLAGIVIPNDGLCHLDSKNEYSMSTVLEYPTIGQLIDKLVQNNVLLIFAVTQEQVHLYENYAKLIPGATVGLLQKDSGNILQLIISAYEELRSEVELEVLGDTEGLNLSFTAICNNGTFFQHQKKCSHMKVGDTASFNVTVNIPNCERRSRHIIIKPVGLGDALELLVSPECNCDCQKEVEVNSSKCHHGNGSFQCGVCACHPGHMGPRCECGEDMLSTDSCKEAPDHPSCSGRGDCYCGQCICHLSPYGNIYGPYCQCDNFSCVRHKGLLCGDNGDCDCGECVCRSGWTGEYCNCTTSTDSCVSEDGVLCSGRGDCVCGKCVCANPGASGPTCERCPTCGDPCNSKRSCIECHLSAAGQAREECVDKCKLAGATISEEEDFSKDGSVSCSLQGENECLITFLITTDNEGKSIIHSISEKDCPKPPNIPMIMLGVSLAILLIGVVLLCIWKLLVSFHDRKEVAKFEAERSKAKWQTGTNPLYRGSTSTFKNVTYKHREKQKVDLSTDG

B1: sc 49 (antibody, V domains shown)
VH: QVQLQESGPGLVKPSQTLSLTCTVAGGSIRSGDYYWSWIRQHPGKGLEWIGNIYYSGSTYYNPSLKSRITISVATSRNQFSLKLTSVTAADTAVYYCARGGAITIFGVFDYWGQGTLVTVSS
VL: not shown
notes: Fully human XenoMouse mAb; also called sc 049
B2: sc 264 (antibody, V domains shown)
VH: QVQLQESGPGLVKPSQTLSLTCTVSGGSISSGGYYWSWIRQHPGKGLEWIGYIYYSGRTYNNPSLKSRVTISVDTSKNQFSLKLSSVTAADTAVYYCARVATGRGDYHFYAMDVWGQGTTVTVSS
VL: SYELTQPSSVSVSPGQTARITCSGDVLAKKSARWFHQKPGQAPVLVIYKDSERPSGIPERFSGSSSGTTVTLTISGAQVEDEAAYYCYSAADNNLVFGGGTKLTVL
notes: Fully human XenoMouse mAb; Has RGD in heavy chain CDR3
B3: sc 264 RAD (antibody, V domains shown)
VH: B2 VH with G105A
VL: B2 VL
B4: sc 188 (antibody, V domains shown)
VH: QVQLQESGPGLVKPSQTLSLTCTVSGGSISSGVYYWTWIRQHPGNGLEWIGYIYYSGSTSYNPSLKSRVTISVDTSKKQFSLNLTSVTAADTAVYYCAREGPLRGDYYYGLDVWGQGTTVTVSS
VL: EIVLTQSPGTLSLSPGERATLSCRAGQTISSRYLAWYQQKPGQAPRPLIYGASSRATGIPDRFSGSGSGTDFTLTISRLEPEDFAVYYCQQYGSSPRTFGQGTKVEIK
notes: Fully human XenoMouse mAb; Has a glycosylation site (NLT) in heavy chain FR3
B5: sc 188 SDM (antibody, V domains shown)
VH: B4 VH with N83K
VL: B4 VL
B6: sc 133 (antibody, V domains shown)
VH: QVQLVQSGAEVKKPGASVKVSCKASGYTFTGYYMHWVRQAPGQGLEWMGWINPKSGDTNYAQKFQGRVTLTRDTSTSTAYMELSRLRSDDTAVYYCARRLDVWGQGTTVTVSS
VL: QSVLTQPPSVSAAPGQKVTISCSGSSSNIGNNYVSWYQQLPGTAPKLLIYDNNKRPSGIPDRFSGSKSGTSATLGITGLQTGDEADYYCGTWNSSLSAGYVFGTGTKVTV
notes: Fully human XenoMouse mAb
B7: sc 161 (antibody, V domains shown)
VH: EVQLVQSGAEVKKPGESLKISCKGSGYSFTSYWIGWVRQMPGKGLEWMGIIYPGDSDTRYSPSFQGQVTISADKSISTAYLQWSSLKASDTAMYYCARHGIAAAGFYYYYMDVWGQGTTVTVSS
VL: EIVLTQSPDTLSLSPGERASLSCRASQNVNRNYLVWYQQKPGQAPRLLIYGTSNRATGIPDRFSGSGSGTDFTLTISRLEPEDFAVYYCQQCGSLPFTFGPGTKVDIKR
notes: Fully human XenoMouse mAb
B8: sc 298 (antibody, V domains shown)
VH: QVQLVESGGGVVQPGRSLRLSCAASGFTFSSYGMHWVRQAPGKGLEWVAVIWYGGSNKYYADSVKGRFTISRDNSKNTLYLQMNSLRAEDTAVYYCARDLAARRGDYYYYGMDVWGQGTTVTVSS
VL: SSELTQDPVVSVALGQTVRITCQGDSLRSYYLSWYQQKPGQAPVLVIYGKNNRPSGIPDRFSGSNSGNTASLTITGAQAEDEADYYCNSRDSSGNHLFGGGTKLTVL
notes: Fully human XenoMouse mAb
B9: sc 374 (antibody, V domains shown)
VH: B8 VH with G54D, D99T, L100E, A101G, A102I, R103A, R104A, G105R, D106L
VL: not shown
notes: Fully human XenoMouse mAb
B10: sc 277 (antibody, V domains shown)
VH: EVQLVQSGAEVKKPGESLKISCKGSGYSFPSYWIGWVRQMPGKGLEWMGIIYPGDSDTRYSPSFQGQVTISADKSISTAYLQWSSLKASDTAMYYCARHPMEDGMDVWGQGTTVTVSS
VL: SYELTQPPSVSVSPGQTARITCSGDALPKKYAFWYQQKSGQAPVLVIYDDNKRPSGIPERFSGSSSGTMATLTITGAQVEDEADYYCYSTDSSGHHVFGGGTKLTVL
notes: Fully human XenoMouse mAb
B11: sc 254 (antibody, V domains shown)
VH: QVQLQESGPGLVKPSQTLSLTCTVSGGSISSGGYYWSWIRQHPGKGLEWIGYIYYSGSTYYNPSLKSRVTISVDTSKNQFSLKLSSVTAADTAMYYCARYRGPAAGRGDFYYFGMDVWGQGTTVTVSS
VL: DIVMTQTPLSLSVTPGQPASIFCKSSQSLLNSDGKTYLCWYLQKPGQPPQLLIYEVSNRFSGVPDRFSGSGSGTDFTLKISRVEAEDVGVYYCMQGIQLPWAFFGQGTKVEIK
notes: Fully human XenoMouse mAb
B12: sc 58 (antibody, V domains shown)
VH: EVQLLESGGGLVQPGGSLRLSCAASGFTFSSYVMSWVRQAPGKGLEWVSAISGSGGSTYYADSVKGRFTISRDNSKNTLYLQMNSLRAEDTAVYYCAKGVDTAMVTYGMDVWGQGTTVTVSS
VL: SYELTQPPSVSVSPGQTARITCSGDALPKKYAYWYQQKSGQAPVLVIYDDSKRPSGIPERFSGSSSGTMATLTISGAQVEDEADYYCYSTDSSGNHRVFGGGTKLTVL
notes: Fully human XenoMouse mAb; also called sc 058
B13: sc 320 (antibody, V domains shown)
VH: EVQLVESGGGLVKPGGSLRLSCAASGYTFTNYIMHWVRQAPGKGLEWVSSISISSSYIYYADSVKGRFTISRDNAKNSLYLQMNSLRAEDTAVYYCARDPVPLERRDYYYGMDVWGQGTTVTVSS
VL: QSVLTQPPSMSAAPGQKVTISCSGSSSNIGNNYVSWYQQLPGTAPKLLIYDNNKRPSGIPDRFSGSKSGTSATLGITGLQTGDEADYYCGTWDSSLSAGVFGGGTKLTVL
notes: Fully human XenoMouse mAb
B14: sc 97 (antibody, V domains shown)
VH: EVQLVQSGAEVKKPGESLKISCKGSGYSFTSYWIGWVRQMPGKGLEWMGIIYPGDSDTRYSPSFQGQVILSADKSISTAYLQWSSLKASDTAMYYCARHDESSGYYYVFDIWGQGTMVTVSS
VL: SYELTQPPSVSVSPGQTARITCSGDALPKKYAYWYQQKSGQAPVLVIYEDIKRPSGIPERFSGSSSGTMATLTISGAQVEDEADYYCYSTDSSGNHWVFFGGGTKLTVL
notes: Fully human XenoMouse mAb; also called sc 097

How the values were obtained:
cynomolgus αVβ6 on cells [1] = biological target: T2, cynomolgus αVβ6 on cells (cynomolgus); assay: FACS, supernatant, HEK-293 cells transfected with cynomolgus αV and β6
T2 construct: whole, on cells; also called macaque αVβ6; Mac AVB6
Description: The assays were performed as follows. […] The cells were then pelleted, the supernatant discarded, and resuspended in FACS buffer and incubated for 30 minutes at 37° C. Cells were then washed twice with FACS buffer and resuspended in a final volume of 100 μL FACS buffer per well.
HEK-293 cells were transiently transfected with cynomolgus αV and cynomolgus β6. After 48 hours, the cells were collected and resuspended in FACS buffer to reach a final concentration of approximately 50,000 cells in 100 μL.
Approximately 100,000 cells total, comprising a 50:50 mix of CFSE-labeled A375M cells and transfected 293 cells, were used in each reaction as follows. 100 μL of CFSE-labeled A375M cells and 100 μL of 293 cells were dispensed into a V-bottom plate. The cells in the plate were pelleted at 1500 rpm for 3 minutes, and then resuspended in 100 μL FACS buffer. The pelleting step was repeated, and the FACS buffer supernatant was removed. The harvested antibody-containing supernatants, or control primary antibodies were added in a volume of 50 μL and the cells were resuspended. […] The plate was incubated on ice for 45 minutes, after which 100 μL FACS buffer was added to dilute the primary antibody. The cells were then pelleted by centrifuging at 1500 rpm for 3 minutes, and the pellet was resuspended in 100 μL FACS buffer. The pelleting step was repeated, and the FACS buffer supernatant was removed. Cells were then resuspended in the appropriate secondary antibody (5 μg/ml) with 7AAD dye (10 μg/ml), and stained on ice for 7 minutes. Then 150 μL of FACS buffer was added and the cells were pelLeted at 1500 rpm for 3 minutes, after which the cells were washed in 100 μL FACS buffer, pelleted, and then resuspended in 250 μL buffer and added to FACS tubes. Samples were analyzed on a high throughput FACS machine and analyzed using Cell Quest Pro software.

[2] = biological target: T3, human αVβ6 integrin on cells (human, UniProt P06756 31-1048; P18564 22-788); assay: FACS, 293T-αVβ6 cells, 1.25 ug/ml
T3 construct: whole, on cells; also called alphaVbeta6
T3 sequence (P06756 31-1048, one chain of several): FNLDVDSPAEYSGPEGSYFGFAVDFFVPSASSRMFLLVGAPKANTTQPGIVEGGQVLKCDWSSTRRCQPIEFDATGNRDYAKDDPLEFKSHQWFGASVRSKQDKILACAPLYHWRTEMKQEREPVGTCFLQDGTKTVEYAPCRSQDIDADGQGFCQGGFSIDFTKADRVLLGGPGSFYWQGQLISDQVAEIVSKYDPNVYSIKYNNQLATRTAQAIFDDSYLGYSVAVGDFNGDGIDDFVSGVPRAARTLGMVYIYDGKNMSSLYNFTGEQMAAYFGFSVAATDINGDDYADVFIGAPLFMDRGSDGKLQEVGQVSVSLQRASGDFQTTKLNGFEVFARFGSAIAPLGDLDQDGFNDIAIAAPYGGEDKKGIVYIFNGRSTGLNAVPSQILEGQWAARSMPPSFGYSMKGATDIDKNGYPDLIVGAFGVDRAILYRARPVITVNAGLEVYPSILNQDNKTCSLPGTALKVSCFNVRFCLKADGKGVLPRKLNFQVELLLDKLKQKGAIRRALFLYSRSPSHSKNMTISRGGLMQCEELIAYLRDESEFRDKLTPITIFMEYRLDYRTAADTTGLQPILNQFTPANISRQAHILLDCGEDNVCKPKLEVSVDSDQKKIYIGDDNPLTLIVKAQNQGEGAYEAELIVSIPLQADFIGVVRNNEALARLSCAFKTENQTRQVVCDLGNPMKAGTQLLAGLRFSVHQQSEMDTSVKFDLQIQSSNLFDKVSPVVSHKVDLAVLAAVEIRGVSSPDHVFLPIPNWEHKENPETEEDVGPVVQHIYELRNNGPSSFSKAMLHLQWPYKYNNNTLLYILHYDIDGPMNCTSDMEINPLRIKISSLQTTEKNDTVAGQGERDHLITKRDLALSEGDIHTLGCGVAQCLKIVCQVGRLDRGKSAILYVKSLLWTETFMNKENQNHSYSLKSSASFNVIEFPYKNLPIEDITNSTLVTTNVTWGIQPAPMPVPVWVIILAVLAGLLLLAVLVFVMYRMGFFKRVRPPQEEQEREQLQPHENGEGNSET
Description: (§1) Cells were divided between reactions in a V-bottom 96-well plate (Sarstedt), and the cells in the plate were pelleted at 1500 rpm for 3 minutes, after which the HBSS supernatant was removed. The primary antibody was added at the concentration indicated in Table 19 in a volume of 50 μL, and the cells were resuspended and thereafter incubated on ice for 60 minutes. After incubation, the cells were pelleted by centrifugation at 1500 rpm for 3 minutes, resuspended in 100 μL wash buffer, and then pelleted again. Cells were then resuspended in the appropriate secondary antibody at 2 μg/ml with 10 μg/ml 7AAD, and stained on ice for 7 minutes, after which 150 μL of wash buffer was added, and cells were pelleted at 1500 rpm for 3 minutes and then resuspended in 100 μL of HBSS with 1% BSA. Samples were read on a FACS machine with a HTS attachment and the data was analyzed using Cell Quest Pro software.

[3] = biological target: T3, human αVβ6 integrin on cells; assay: FACS titration on K562 cells stably expressing human αVβ6, done as in Example 18, averaged geometric mean fluorescence
[4] = biological target: T3, human αVβ6 integrin on cells; assay: FACS, 293T-αVβ6 cells, 5 ug/ml
Description: as §1

[5] = biological target: T3, human αVβ6 integrin on cells; assay: FACS, 293T-αVβ6 cells, 20 ug/ml
Description: as §1

soluble αVβ6 = biological target: T4, soluble αVβ6 (human, UniProt P06756 31-992; P18564 22-709); assay: competition ELISA: soluble αVβ6 (250 ng/ml) pre-incubated with the mAb, then binding to plate-coated GST-LAP, bound αVβ6 detected with mAb 2075
T4 construct: extracellular domain; also called soluble antigen; soluble αVβ6 protein
T4 sequence (P06756 31-992, one chain of several): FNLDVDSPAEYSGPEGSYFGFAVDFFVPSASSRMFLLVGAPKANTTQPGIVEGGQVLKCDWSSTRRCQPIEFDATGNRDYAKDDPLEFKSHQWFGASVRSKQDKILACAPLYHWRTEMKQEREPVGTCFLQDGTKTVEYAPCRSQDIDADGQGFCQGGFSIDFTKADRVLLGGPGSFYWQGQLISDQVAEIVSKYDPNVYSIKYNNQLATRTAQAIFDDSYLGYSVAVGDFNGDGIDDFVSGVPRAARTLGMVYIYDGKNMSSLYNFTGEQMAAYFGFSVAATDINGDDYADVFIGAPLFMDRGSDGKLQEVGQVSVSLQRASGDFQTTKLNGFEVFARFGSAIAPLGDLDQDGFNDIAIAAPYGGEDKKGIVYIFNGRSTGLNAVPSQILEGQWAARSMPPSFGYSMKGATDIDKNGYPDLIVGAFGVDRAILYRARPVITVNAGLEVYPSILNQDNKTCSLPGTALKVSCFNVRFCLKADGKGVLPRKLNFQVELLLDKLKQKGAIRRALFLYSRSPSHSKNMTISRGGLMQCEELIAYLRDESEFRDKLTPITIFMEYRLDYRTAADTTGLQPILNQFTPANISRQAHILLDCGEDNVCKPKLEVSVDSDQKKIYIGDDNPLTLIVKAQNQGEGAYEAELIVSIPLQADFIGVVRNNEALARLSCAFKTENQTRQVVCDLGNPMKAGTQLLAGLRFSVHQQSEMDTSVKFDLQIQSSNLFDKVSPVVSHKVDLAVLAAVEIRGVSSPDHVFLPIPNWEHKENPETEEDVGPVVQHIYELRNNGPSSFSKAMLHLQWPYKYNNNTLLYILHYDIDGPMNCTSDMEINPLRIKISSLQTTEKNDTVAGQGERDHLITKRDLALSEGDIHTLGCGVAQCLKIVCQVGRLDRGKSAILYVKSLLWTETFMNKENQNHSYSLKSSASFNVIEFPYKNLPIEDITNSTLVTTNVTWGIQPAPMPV
Description: The wells were then washed three times using 300 μL/well of assay diluent. […] The wells were then washed three times using 300 μL/well of assay diluent, and incubated with goat anti-mouse IgG Fc-peroxidase at 400 ng/ml in assay diluent (50 μL/well) for one hour at room temperature. The wells were then washed three times using 300 μL/well of assay diluent, and developed using 1-step TMB (Neogen) at a total volume of 50 μL/well. After 15 minutes, the developing reaction was quenched with 50 μL/well of 1N Hydrochloric acid.

[6] = biological target: T3, human αVβ6 integrin on cells; assay: FACS titration on K562 cells stably expressing human αVβ6, Cy5 goat anti-human detection, averaged geometric mean fluorescence
Description: K562 cells expressing αVβ6 were resuspended in filtered HBS buffer containing 1 mM of MgCl₂ and 1 mM of CaCl₂ at a concentration of approximately 6 million cells/mL. The cells were kept on ice. […] The 12th well in each row contained buffer only. Titrations were done in triplicate. Additional HBS and cells were added to each well so that the final volume was 300 μL/well and each well contained approximately 120,000 cells. […] The plates were then shaken for 40 minutes at 4° C., and thereafter were spun and washed once again three times with HBS. The Geometric Mean Fluorescence (GMF) of 20,000 “events” for each mAb concentration was recorded using a FACSCalibur instrument, and the corresponding triplicate titration points were averaged to give one GMF point for each mAb concentration. A plot of the averaged GMF as a function of molecular mAb concentration with Scientist software was fit nonlinearly using the equation:

[7] = biological target: T1, cynomolgus β6 on transfected HEK-293 …; assay: FACS, purified mAb, transiently transfected HEK-293 cells
Description: (§2) Cross-reactivity of the mAbs to macaque and mouse αVβ6 was tested on the purified mAbs using FACS analysis on HEK-293 cells transiently transfected with cynomolgus or mouse αV, β6, or αVβ6. Approximately 48 hours after transfection, the cells were collected and resuspended in FACS buffer to reach a final concentration of approximately 50,000 cells in 100 μL.
(§3) Approximately 100,000 cells total, were used in each reaction as follows. 200 μL of 293 cells were dispensed into a V-bottom plate. The cells in the plate were pelleted at 1500 rpm for 3 minutes, and then resuspended in 100 μL FACS buffer. The pelleting step was repeated, and the FACS buffer supernatant was removed. The purified mAbs, or control primary antibodies were added in a volume of 50 μL and the cells were resuspended. […] The plate was incubated on ice for 45 minutes, after which 100 μL FACS buffer was added to dilute the primary antibody. The cells were then pelleted by centrifuging at 1500 rpm for 3 minutes, and the pellet was resuspended in 100 μL FACS buffer. The pelleting step was repeated, and the FACS buffer supernatant was removed. Cells were then resuspended in the appropriate secondary antibody (5 μg/ml) with 7AAD dye (10 μg/ml), and stained on ice for 7 minutes. Then 150 μL of FACS buffer was added and the cells were pelleted at 1500 rpm for 3 minutes, after which the cells were washed in 100 μL FACS buffer, pelleted, and then resuspended in 250 μL buffer and added to FACS tubes. Samples were analyzed on a high throughput FACS machine and analyzed using Cell Quest Pro software.

cynomolgus αVβ6 on cells [8] = biological target: T2, cynomolgus αVβ6 on cells; assay: as above
Description: as §2, §3

[9] = biological target: T5, cynomolgus αV on transfected HEK-293 cells (cynomolgus, UniProt A0A2K5WCD3 31-1048); assay: as above
T5 construct: Chain transfected alone; also called Cynomolgus alphaV
T5 sequence (A0A2K5WCD3 entry or part of it limits assumed): as the sequence (P06756 31-1048, one chain of several) above, with M118L, L264I, E270D, R562W, S609F, N660S, V753I, T840A counted along it
Description: as §2, §3

cynomolgus αVβ6 on cells [10] = biological target: T2, cynomolgus αVβ6 on cells; assay: FACS, purified mAb, transiently transfected HEK-293 cells (parental cells 49)
Description: as §2, §3

mouse αVβ6 on cells = biological target: T6, mouse αVβ6 on cells (mouse, UniProt P43406 31-1044; Q9Z0T9 22-787); assay: as above
T6 construct: whole, on cells; also called Mouse alphaVbeta6
T6 sequence (P43406 31-1044, chain 1 of 2): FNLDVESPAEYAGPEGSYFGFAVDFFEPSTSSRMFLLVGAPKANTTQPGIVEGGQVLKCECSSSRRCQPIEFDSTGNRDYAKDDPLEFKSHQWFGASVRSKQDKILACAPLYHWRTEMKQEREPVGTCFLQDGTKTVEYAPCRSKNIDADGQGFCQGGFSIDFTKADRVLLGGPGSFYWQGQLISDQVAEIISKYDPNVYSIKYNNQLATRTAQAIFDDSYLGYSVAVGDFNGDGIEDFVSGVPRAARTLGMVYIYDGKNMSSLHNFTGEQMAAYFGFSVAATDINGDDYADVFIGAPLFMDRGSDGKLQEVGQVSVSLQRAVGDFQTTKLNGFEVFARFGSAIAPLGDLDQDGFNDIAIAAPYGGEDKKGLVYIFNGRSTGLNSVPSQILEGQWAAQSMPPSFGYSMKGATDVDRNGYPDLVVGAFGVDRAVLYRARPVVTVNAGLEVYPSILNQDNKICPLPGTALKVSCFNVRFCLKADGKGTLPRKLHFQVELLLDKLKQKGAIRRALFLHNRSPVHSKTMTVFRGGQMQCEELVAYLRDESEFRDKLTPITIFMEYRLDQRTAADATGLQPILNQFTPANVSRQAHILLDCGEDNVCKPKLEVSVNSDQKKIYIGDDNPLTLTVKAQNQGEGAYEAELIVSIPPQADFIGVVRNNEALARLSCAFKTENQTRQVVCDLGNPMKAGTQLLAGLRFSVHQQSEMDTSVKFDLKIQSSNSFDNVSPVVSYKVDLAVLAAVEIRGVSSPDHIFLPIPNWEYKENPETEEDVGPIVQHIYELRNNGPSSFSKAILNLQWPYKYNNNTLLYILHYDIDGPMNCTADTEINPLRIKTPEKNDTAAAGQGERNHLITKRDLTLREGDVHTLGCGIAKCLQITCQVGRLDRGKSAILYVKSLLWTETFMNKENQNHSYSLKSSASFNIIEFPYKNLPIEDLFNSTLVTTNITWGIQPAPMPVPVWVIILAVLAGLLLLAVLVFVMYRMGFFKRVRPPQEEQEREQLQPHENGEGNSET
T6 sequence (Q9Z0T9 22-787, chain 2 of 2): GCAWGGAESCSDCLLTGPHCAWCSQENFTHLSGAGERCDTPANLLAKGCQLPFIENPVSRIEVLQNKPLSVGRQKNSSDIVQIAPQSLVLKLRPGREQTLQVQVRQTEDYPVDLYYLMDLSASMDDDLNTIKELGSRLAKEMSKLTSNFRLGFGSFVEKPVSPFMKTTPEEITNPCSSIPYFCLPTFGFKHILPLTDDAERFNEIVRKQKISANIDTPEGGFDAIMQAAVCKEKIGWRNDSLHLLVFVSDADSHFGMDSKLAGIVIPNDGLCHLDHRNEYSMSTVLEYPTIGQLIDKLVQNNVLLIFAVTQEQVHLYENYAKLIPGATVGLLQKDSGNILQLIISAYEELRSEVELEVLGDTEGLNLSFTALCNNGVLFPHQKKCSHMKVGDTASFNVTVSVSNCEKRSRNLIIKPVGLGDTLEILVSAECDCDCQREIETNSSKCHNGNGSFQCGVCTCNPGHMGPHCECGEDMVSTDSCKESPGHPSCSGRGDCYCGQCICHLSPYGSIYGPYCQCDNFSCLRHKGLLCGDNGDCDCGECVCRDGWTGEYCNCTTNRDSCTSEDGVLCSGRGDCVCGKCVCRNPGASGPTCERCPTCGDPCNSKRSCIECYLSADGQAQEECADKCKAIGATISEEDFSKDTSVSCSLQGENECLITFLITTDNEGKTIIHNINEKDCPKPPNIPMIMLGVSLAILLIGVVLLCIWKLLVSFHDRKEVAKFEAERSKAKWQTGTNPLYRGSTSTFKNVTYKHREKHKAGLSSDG
Description: as §2, §3

[11] = biological target: T5, cynomolgus αV on transfected HEK-293 …; assay: as above
Description: as §2, §3

Binder | Mac AVB6 % Cells Shifted (cynomolgus αVβ6 on cells [1]) [%] | Mac AVB6 GeoMean (cynomolgus αVβ6 on cells [1]) | other results
B1 | 23 | 30.2 | –
B2 | 55 | 66.4 | –
B3 | – | – | Geometric Mean Shift [2]: 4890 arbitrary units; EC50 (read off the curve) [3]: ~0.08 nM; Geometric Mean Shift [4]: 6840 arbitrary units; Geometric Mean Shift [5]: 7240 arbitrary units
B4 | – | 23.9 | IC50 (read off the curve) (soluble αVβ6): ~0.2 µg/mL; EC50 (read off the curve) [6]: ~0.06 nM
B5 | – | – | Geometric Mean Shift [2]: 4530 arbitrary units; Geometric Mean Shift [4]: 6820 arbitrary units; Geometric Mean Shift [5]: 6760 arbitrary units
B6 | 32 | 35.2 | percent of cells shifted [7]: 10%; percent of cells shifted (cynomolgus αVβ6 on cells [8]): 28%; percent of cells shifted [9]: 5%
B7 | 14 | 33 | –
B8 | 53 | 63.1 | percent of cells shifted (cynomolgus αVβ6 on cells [10]): 38%; percent of cells shifted (mouse αVβ6 on cells): 53%; percent of cells shifted [11]: 48%; IC50 (read off the curve) (soluble αVβ6): ~0.2 µg/mL
B9 | – | 61.8 | –
B10 | 35 | 33.4 | –
B11 | – | 78.5 | IC50 (read off the curve) (soluble αVβ6): ~0.3 µg/mL
B12 | 25 | 22.8 | –
B13 | 19 | 33.5 | –
B14 | 35 | 37 | –

From US20150166663A1 (AstraZeneca / MedImmune, published 2015)
